B1: HDV Ribozyme (parent)
chain: GGCCGGCAUGGUCCCAGCCUCCUCGCUGGCGCCGGCUGGGCAACAUUCCGAGGGGACCGUCCCCUCGGUAAUGGCGAAUGGGACCCA

The variants in the data set derive from B1. As to the kind of experiment: self-cleavage, relative activity (ratio to wild type); higher = more cleavage; co-transcriptional.
C66U G73A: the self-cleavage was determined as 0.66.
The figure for C30A G52C is 0.58; for C3A C19U it is 0.0134; for G11A C86U it is 0.338.
To A43U C75U belongs 0.128.
Regarding C30U C48A, the self-cleavage is 0.739.
The figure for C4A G68C is 0.115; for C19G G29C it is 0.201; for U9C G31C it is 0.598.
To U12C C62G belongs 0.123.
To G1A G31U belongs 0; to C15U G81C, 0.317; to G17C U72A, 0.
Regarding G35A A87G, the self-cleavage came to 0.473.
The figure for C58G G81C is 0.364; for C26U C75A it is 0.154.
To G25A A43C belongs 0; to G31A G82A, 0.166; to U27C C36U, 0.404.
To C13A C15A belongs 0; to G1C C22G, 0; to C3G U46C, 0.373.
C48G U79G: the self-cleavage is 0.795.
To G59U U69A belongs 0.85; to C3A G11A, 0.236; to C22A G25A, 0.0369.
The figure for A70G is 0.969; for U20C A78C it is 0.0449; for U12A G53A it is 0.403.
As to U72A A78G, the self-cleavage was found to be 0.504.
As to G5C A70G, the self-cleavage worked out at 0.158.
The figure for G2C G80C is 0.154; for C41A A78G it is 0.534.
To G2A C18U belongs 0.0239; to C62U C63G, 0.654; to C22A C64G, 0.302.
To G76A G82A belongs 0.35; to C7G C22A, 0.
As for C18G G40C, the self-cleavage was found to be 0.0852.
To A8G G17A belongs 0.629.
To G38C U69A belongs 0.095; to G11C U72A, 0.0875.
G40C A71U: the self-cleavage was 0.228.
To U27A G82A belongs 0.849; to G6A C36G, 0.0811; to C14U U47G, 0.939.
To A8G C85U belongs 1.06; to A16U G31A, 0.409; to C15G G80U, 0.73.
The figure for U12G C57A is 0.985; for C14A G76C it is 0.969; for A45G A78G it is 0.617.
For C18G G76A, the self-cleavage came to 0.111.
The figure for C26A A87C is 0.944.
To G29U C48G belongs 0.106.
As for U60G C75G, the self-cleavage was 0.119.
To C22G A71C belongs 0.151; to C13A G34U, 0; to A42G C66U, 0.591.
The figure for C57G C61A is 1.03; for C18U A51U it is 0.701; for U37A G82C it is 0.0405.
The figure for G40C A77U is 0.128.
Consider C66U G76A, for which the self-cleavage is 0.86.
To C36G U79C belongs 0.154; to C15U C32U, 0.73.
The figure for G6A G39C is 0.0415.
With U46G U65G, the self-cleavage came to 0.712.
To C13U C14U belongs 0.308.
The figure for C18G G25C is 0.222.
The figure for U27A G31C is 0.378; for G38C A56C it is 0.181.
On to U23C U65C, for which the self-cleavage was determined as 1.02.
The figure for C14U C64U is 0.972; for C18G A42C it is 0.
The figure for C18G A42U is 0.138; for G6A G76C it is 0.764; for G50C A70U it is 0.8.
To A16C A77C belongs 0.266.
As to C14G G55U, the self-cleavage amounted to 0.682.
The figure for C19U G53A is 0.229; for C61U U79A it is 0.88.
To C66A U72G belongs 0.332.
To C15G G68U belongs 0.369; to G39C A56C, 0.18.
Regarding G5U G81A, the self-cleavage was determined as 0.147.
To C24A A70C belongs 0.852.
On to G39U C84U, for which the self-cleavage stood at 0.492.
For G59C A78C, the self-cleavage was 0.179.
The figure for G17C C36A is 0.0361; for A8C A51G it is 0.997; for A8C U46C it is 0.615.
To G10A U37C belongs 0.695; to G10U U20G, 0.113.
For G17A G29A, the self-cleavage was 0.128.
The figure for G6C C86U is 0.403.
To U12G G67U belongs 0.731; to G53U G54C, 0.845.
For the variant G11C C57G, the self-cleavage worked out at 0.249.
The figure for C21A U65C is 0.0583; for G10C G28A it is 0.0723.
To G53U U79C belongs 0.535.
To C62U A78G belongs 0.475.
In the case of C66A G76U, the self-cleavage was 0.981.
Turning to C63U U72C, the self-cleavage came out at 0.751.
To C63U U72A belongs 0.864; to C3U U9G, 0.942.
For C44A G80C, the self-cleavage was 0.109.
The figure for A45G G74U is 0.543.
As to C36A U65A, the self-cleavage was determined as 0.163.
For G31A U69C, the self-cleavage came to 0.525.
In the case of C18A U69G, the self-cleavage was determined as 0.232.
In the case of C49U A77U, the self-cleavage came to 0.297.
The figure for G38A C57A is 0.128; for G40C G54U it is 0.205; for G2C G34U it is 0.0966.
The figure for G80C G81C is 0.186; for G67A C85G it is 1.1; for G10A C61A it is 0.674.
The figure for G11A U79G is 0.0923; for C7G G82A it is 0.113; for G73U C86A it is 0.543.
C3G C41G: the self-cleavage turned out to be 0.241.
To G52A C64U belongs 0.992; to C24U G55A, 0.869; to G6A C21U, 0.0665.
To C24G G80C belongs 0.271; to G54C C75U, 0.358; to U60C C63U, 0.98.
Regarding G5A C75U, the self-cleavage was found to be 0.0346.
The figure for C4A C18G is 0.166.
For the variant A77C A78U, the self-cleavage came out at 0.208.
The figure for G59C U79A is 0.987; for C33U A77G it is 0.554; for C13G C61A it is 0.148.
To G29C C30G belongs 0; to C36A G82C, 0.112.
The figure for G6A A71U is 0.554; for C61G A70G it is 0.844.
As for C14G C33U, the self-cleavage worked out at 0.32.
The figure for U9A G38U is 0.237; for U20C G50C it is 0.312.
To U23C G25C belongs 0.138.
The figure for G81U A83C is 0.0821; for C32G G67A it is 0.16; for A16G G38A it is 0.213.
With U65C C75G, the self-cleavage worked out at 0.482.
To G2U C32U belongs 0.0437; to C33A C36U, 0.0396.
To G29A C84U belongs 0.133; to G53A G81U, 0.272; to A51U C61A, 0.938.
Consider C48G C49U, for which the self-cleavage is 1.08.
The figure for C15G G67A is 0.731; for C21U U60C it is 0.219.
The figure for G1C A83G is 0.151.
To U23G C48A belongs 0.807; to G2C C33U, 0.0608; to C21U G53A, 0.116.
G5U C85A: the self-cleavage was found to be 0.594.
To C3G A16U belongs 0.655; to C3G A16C, 0.208.
To A56C C61G belongs 1.05; to C41G U47C, 0.633; to C32A U37A, 0.0627.
To C4A C7G belongs 0.104; to G55C, 1.02.

Values taken from the RNAGym collection of RNA variant scans (doi:10.7554/elife.80360).
